Measurements: PMC4889941, “Flexibility of KorA, a plasmid-encoded, global transcription regulator, in the presence and the absence of its operator” (Nucleic Acids Research, 2016)

Target: the molecule itself
Assay: SAXS; free KorA at 2.5, 5 and 10 mg/ml in 20 mM Tris-HCl pH 7.0, 100 mM NaCl, 1 mM EDTA, 293K; confirmed by SEC-SAXS (Superdex 200 Increase, 4 mg/ml); mass from I0 against bovine serum albumin

B1: KorA repressor from the IncP1 plasmid RK2 (natural protein)
chain: MKKRLTESQFQEAIQGLEVGQQTIEIARGVLVDGKPQATFATSLGLTRGAVSQAVHRVWAAFEDKNLPEGYARVTAVLPEHQAYIVRKWEADAKKKQETKR
notes: KorA, global transcription repressor encoded by the IncP1 plasmid RK2; 13C/15N-labelled protein was used for NMR; also called free KorA; KorA dimer
For B1, which “stoichiometry N” value is on record?
Its value is 2.
